Assay results from patent US8748480B2, “Methods for treating opioid tolerance” (priority 2005, dated 2014).

Key:
Format in all cases: binding
Gβ1γ2 Lys57Ala = target: T1, Gβ1γ2 Lys57Ala (Rattus norvegicus, UniProt P54311, K57A); test: Phage ELISA, b-βγ mutant Lys57Ala; details: alanine-substituted Lys57, C-Terminal Interface; mean ± SD
T1 construct: made in house; host or cells: Sf9 insect cells (baculovirus)
Excerpt: (§1) Wild-type Gβ1 and Gβ1 mutants were made in the baculovirus vector PDW464 which encodes a biotinylation site at a lysine upstream of the amino terminus of Gβ1 (Goubaeva, et al. (2003) supra). Mutants were generated by overlap extension PCR using standard protocols. The wild-type and mutant Gβ1 constructs consisted of a 20 amino acid biotin acceptor peptide (BAP) sequence fused in-frame with the amino-terminus of rat Gβ1 subunit. When coexpressed with biotin holoenzyme synthetase (BirA) in Sf9 cells, the Gβ1 subunit becomes covalently biotinylated in vivo at the Specific lysine acceptor residue in the BAP. Using this approach, 1-2 mg protein of purified protein can be obtained per liter of Sf9 insect cells. As 45 ng of protein is used in the phage ELISA assay, a single purification is sufficient for 10,000 to 30,000 binding assays.
(§2) Phage ELISA assays used to assess peptide binding to wild-type and mutant b-βγ were performed according to standard methods (Smrcka and Scott (2002) Methods Enzymol. 344:557-76). Briefly, 1 μg streptavidin was immobilized in the well of a […] overnight at 4° C. The wells were blocked with 100 μL of 2% bovine serum albumin (BSA) in Tris-buffered saline (TBS) for 1 hour at 4° C. followed by three washes of 1×TBS/0.5% TWEEN®. Forty μL of 25 nM bGβ1γ2 in TBS/0.5% TWEEN® was added to each well and incubated at 4° C. for 1.5 hour. The wells were washed, followed by the addition of 1×10^6 to 1×10^10 phage particles and incubated at 4° C. for 3 hours. The wells were then washed six times with TBS/0.5% TWEEN® followed by addition of 40 μL of 1:5000 dilution of anti-M13 antibody (Pharmacia, Uppsala, Sweden) and incubated at room temperature for 1 hour. The wells were washed, followed by the addition of 40 μL of (2,2′-Azino-bis(3-ethylbenzthiazoline)-6-sulfonic acid (ABTS) and the colorimetric reaction was monitored at 405 nm. Non-specific binding was subtracted for each reading.
(§3) Both assays were then carried out with Gβ1γ2 heterodimers containing mutations in the Gβ1 subunit.
(§4) The nine peptides were selected to represent the different consensus groups of peptides previously identified (See Scott et al. (2001) supra; Table 9) and to compare binding characteristics within and between consensus groups. […] As disclosed herein, the binding signal obtained in the ELISA assay was correlated to a loss in affinity by comparing the results to behavior of the peptide in a solution based assay. […] For the purposes of present disclosure, any substitution that decreased the binding to less than 20% of the wild-type binding was considered to be a critical binding contact for that peptide.

Gβ1γ2 Tyr59Ala = target: T2, Gβ1γ2 Tyr59Ala (Rattus norvegicus, UniProt P54311, Y59A); test: Phage ELISA, b-βγ mutant Tyr59Ala; details: alanine-substituted Tyr59, C-Terminal Interface; mean ± SD
T2 construct: made in house; host or cells: Sf9 insect cells (baculovirus)
Excerpt: as §1, with “BAP.” for “BAP. Using this approach, 1-2 mg protein of purified protein can be obtained per liter of Sf9 insect cells. As 45 ng of protein is used in the phage ELISA assay, a single purification is sufficient for 10,000 to 30,000 binding assays.”
as §2, with “Forty μL of 25 nM bGβ1γ2 in TBS/0.5% TWEEN® was added to each well and incubated at 4° C. for 1.5 hour.” left out
as §3
The nine peptides were selected to represent the different consensus groups of peptides previously identified (See Scott et al. (2001) supra; Table 9) and to compare binding characteristics within and between consensus groups. […] For the purposes of present disclosure, any substitution that decreased the binding to less than 20% of the wild-type binding was considered to be a critical binding contact for that peptide.

Gβ1γ2 Trp99Ala = target: T3, Gβ1γ2 Trp99Ala (Rattus norvegicus, UniProt P54311, W99A); test: Phage ELISA, b-βγ mutant Trp99Ala; details: alanine-substituted Trp99, C-Terminal Interface; mean ± SD
T3 construct: made in house; host or cells: Sf9 insect cells (baculovirus)
Excerpt: as §1, §2, §3, §4

Gβ1γ2 Met101Ala = target: T4, Gβ1γ2 Met101Ala (Rattus norvegicus, UniProt P54311, M101A); test: Phage ELISA, b-βγ mutant Met101Ala; details: alanine-substituted Met101, C-Terminal Interface; mean ± SD
T4 construct: made in house; host or cells: Sf9 insect cells (baculovirus)
Excerpt: as §1, §2, §3, §4

Gβ1γ2 Leu117Ala = target: T5, Gβ1γ2 Leu117Ala (Rattus norvegicus, UniProt P54311, L117A); test: Phage ELISA, b-βγ mutant Leu117Ala; details: alanine-substituted Leu117, C-Terminal Interface; mean ± SD
T5 construct: made in house; host or cells: Sf9 insect cells (baculovirus)
Excerpt: as §1, §2, §3, §4

Gβ1γ2 Tyr145Ala = target: T6, Gβ1γ2 Tyr145Ala (Rattus norvegicus, UniProt P54311, Y145A); test: Phage ELISA, b-βγ mutant Tyr145Ala; details: alanine-substituted Tyr145, N-Terminal Interface; mean ± SD
T6 construct: made in house; host or cells: Sf9 insect cells (baculovirus)
Excerpt: as §1, §2, §3, §4

Gβ1γ2 Asp186Ala = target: T7, Gβ1γ2 Asp186Ala (Rattus norvegicus, UniProt P54311, D186A); test: Phage ELISA, b-βγ mutant Asp186Ala; details: alanine-substituted Asp186, N-Terminal Interface; mean ± SD
T7 construct: made in house; host or cells: Sf9 insect cells (baculovirus)
Excerpt: as §1, §2, §3, §4

Gβ1γ2 Met188Ala = target: T8, Gβ1γ2 Met188Ala (Rattus norvegicus, UniProt P54311, M188A); test: Phage ELISA, b-βγ mutant Met188Ala; details: alanine-substituted Met188, Shared; mean ± SD
T8 construct: made in house; host or cells: Sf9 insect cells (baculovirus)
Excerpt: as §1, §2, §3, §4

Gβ1γ2 Asn230Ala = target: T9, Gβ1γ2 Asn230Ala (Rattus norvegicus, UniProt P54311, N230A); test: Phage ELISA, b-βγ mutant Asn230Ala; details: alanine-substituted Asn230, N-Terminal Interface; mean ± SD
T9 construct: made in house; host or cells: Sf9 insect cells (baculovirus)
Excerpt: as §1, §2, §3, §4

Gβ1γ2 Asp246Ser = target: T10, Gβ1γ2 Asp246Ser (Rattus norvegicus, UniProt P54311, D246S); test: Phage ELISA, b-βγ mutant Asp246Ser; details: Asp246 mutant (Asp246Ser), N-Terminal Interface; mean ± SD
T10 construct: made in house; host or cells: Sf9 insect cells (baculovirus)
Excerpt: as §1, §2, §3, §4

Gβ1γ2 His311Ala = target: T11, Gβ1γ2 His311Ala (Rattus norvegicus, UniProt P54311, H311A); test: Phage ELISA, b-βγ mutant His311Ala; details: alanine-substituted His311, Indirect; mean ± SD
T11 construct: made in house; host or cells: Sf9 insect cells (baculovirus)
Excerpt: as §1, §2, §3, §4

Gβ1γ2 Arg314Ala = target: T12, Gβ1γ2 Arg314Ala (Rattus norvegicus, UniProt P54311, R314A); test: Phage ELISA, b-βγ mutant Arg314Ala; details: alanine-substituted Arg314, Indirect; mean ± SD
T12 construct: made in house; host or cells: Sf9 insect cells (baculovirus)
Excerpt: as §1, §2, §3, §4

Gβ1γ2 Trp332Ala = target: T13, Gβ1γ2 Trp332Ala (Rattus norvegicus, UniProt P54311, W332A); test: Phage ELISA, b-βγ mutant Trp332Ala; details: alanine-substituted Trp332, C-Terminal Interface; mean ± SD
T13 construct: made in house; host or cells: Sf9 insect cells (baculovirus)
Excerpt: as §1, §2, §3, §4

T10 sequence (P54311 whole entry D246S): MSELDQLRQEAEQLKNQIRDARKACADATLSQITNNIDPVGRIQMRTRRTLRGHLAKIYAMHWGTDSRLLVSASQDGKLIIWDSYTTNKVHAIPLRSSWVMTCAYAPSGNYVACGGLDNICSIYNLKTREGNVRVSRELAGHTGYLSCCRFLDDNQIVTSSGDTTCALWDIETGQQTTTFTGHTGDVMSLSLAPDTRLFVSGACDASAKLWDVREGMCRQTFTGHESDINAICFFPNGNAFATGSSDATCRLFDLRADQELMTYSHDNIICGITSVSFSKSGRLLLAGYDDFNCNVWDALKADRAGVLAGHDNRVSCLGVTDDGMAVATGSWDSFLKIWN
T10 sequence (P63212 2-68 partner limits assumed): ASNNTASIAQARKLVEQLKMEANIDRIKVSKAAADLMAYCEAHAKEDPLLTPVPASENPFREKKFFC
T9 sequence (P54311 whole entry N230A): as the sequence (P54311 whole entry D246S) above, with N230A, S246D counted along it
T9 sequence (P63212 2-68 partner limits assumed): as the sequence (P63212 2-68 partner limits assumed) above
T7 sequence (P54311 whole entry D186A): as the sequence (P54311 whole entry D246S) above, with D186A, S246D counted along it
T7 sequence (P63212 2-68 partner limits assumed): as the sequence (P63212 2-68 partner limits assumed) above
T2 sequence (P54311 whole entry Y59A): as the sequence (P54311 whole entry D246S) above, with Y59A, S246D counted along it
T2 sequence (P63212 2-68 partner limits assumed): as the sequence (P63212 2-68 partner limits assumed) above
T8 sequence (P54311 whole entry M188A): as the sequence (P54311 whole entry D246S) above, with M188A, S246D counted along it
T8 sequence (P63212 2-68 partner limits assumed): as the sequence (P63212 2-68 partner limits assumed) above
T11 sequence (P54311 whole entry H311A): as the sequence (P54311 whole entry D246S) above, with S246D, H311A counted along it
T11 sequence (P63212 2-68 partner limits assumed): as the sequence (P63212 2-68 partner limits assumed) above
T13 sequence (P54311 whole entry W332A): as the sequence (P54311 whole entry D246S) above, with S246D, W332A counted along it
T13 sequence (P63212 2-68 partner limits assumed): as the sequence (P63212 2-68 partner limits assumed) above
T1 sequence (P54311 whole entry K57A): as the sequence (P54311 whole entry D246S) above, with K57A, S246D counted along it
T1 sequence (P63212 2-68 partner limits assumed): as the sequence (P63212 2-68 partner limits assumed) above
T12 sequence (P54311 whole entry R314A): as the sequence (P54311 whole entry D246S) above, with S246D, R314A counted along it
T12 sequence (P63212 2-68 partner limits assumed): as the sequence (P63212 2-68 partner limits assumed) above
T5 sequence (P54311 whole entry L117A): as the sequence (P54311 whole entry D246S) above, with L117A, S246D counted along it
T5 sequence (P63212 2-68 partner limits assumed): as the sequence (P63212 2-68 partner limits assumed) above
T3 sequence (P54311 whole entry W99A): as the sequence (P54311 whole entry D246S) above, with W99A, S246D counted along it
T3 sequence (P63212 2-68 partner limits assumed): as the sequence (P63212 2-68 partner limits assumed) above
T4 sequence (P54311 whole entry M101A): as the sequence (P54311 whole entry D246S) above, with M101A, S246D counted along it
T4 sequence (P63212 2-68 partner limits assumed): as the sequence (P63212 2-68 partner limits assumed) above
T6 sequence (P54311 whole entry Y145A): as the sequence (P54311 whole entry D246S) above, with Y145A, S246D counted along it
T6 sequence (P63212 2-68 partner limits assumed): as the sequence (P63212 2-68 partner limits assumed) above

| Sequence | % of Wild-Type Signal, Lys57 (Gβ1γ2 Lys57Ala) [%] | % of Wild-Type Signal, Tyr59 (Gβ1γ2 Tyr59Ala) [%] | % of Wild-Type Signal, Trp99 (Gβ1γ2 Trp99Ala) [%] | % of Wild-Type Signal, Met101 (Gβ1γ2 Met101Ala) [%] | % of Wild-Type Signal, Leu117 (Gβ1γ2 Leu117Ala) [%] | % of Wild-Type Signal, Tyr145 (Gβ1γ2 Tyr145Ala) [%] | % of Wild-Type Signal, Asp186 (Gβ1γ2 Asp186Ala) [%] | % of Wild-Type Signal, Met188 (Gβ1γ2 Met188Ala) [%] | % of Wild-Type Signal, Asn230 (Gβ1γ2 Asn230Ala) [%] | % of Wild-Type Signal, Asp246 (Gβ1γ2 Asp246Ser) [%] | % of Wild-Type Signal, His311 (Gβ1γ2 His311Ala) [%] | % of Wild-Type Signal, Arg314 (Gβ1γ2 Arg314Ala) [%] | % of Wild-Type Signal, Trp332 (Gβ1γ2 Trp332Ala) [%] |
| --- | --- | --- | --- | --- | --- | --- | --- | --- | --- | --- | --- | --- | --- |
| LCSKAYLLLGQTC [2F] | −4.5 ± 6.2 | −2.0 ± 9.5 | 32.6 ± 26.3 | 6.0 ± 5.1 | 2.1 ± 5.5 | 0.1 ± 6.5 | 2.4 ± 3.5 | 8.5 ± 5.2 | 27.6 ± 19.1 | 0.6 ± 2.5 | 23.6 ± 46.0 | 2.4 ± 3.9 | −1.5 ± 3.6 |
| SCEKRLGVRSCT [C5] | 5.6 ± 5.3 | 73.8 ± 16.6 | 39.0 ± 3.8 | 47.8 ± 18.9 | 28.5 ± 5.2 | 16.7 ± 4.8 | 45.7 ± 5.2 | 97.2 ± 14.2 | 33.5 ± 7.2 | 56.3 ± 4.1 | 58.7 ± 14.4 | 76.5 ± 6.7 | 3.2 ± 3.7 |
| SCEKRYGIEFCT [C4] | −0.2 ± 1.9 | 7.6 ± 9.6 | 67.0 ± 15.2 | 61.2 ± 30.9 | 18.4 ± 7.1 | 4.4 ± 3.8 | 51.3 ± 15.0 | 127.5 ± 22.4 | 11.5 ± 6.0 | 35.8 ± 7.4 | 36.5 ± 8.3 | 1.4 ± 1.0 | 1.7 ± 3.0 |
| SCGHGLKVQSTIGACA [3C] | 3.6 ± 7.5 | 8.5 ± 6.4 | −0.5 ± 5.9 | −4.2 ± 5.5 | 10 ± 13.3 | 2.7 ± 10.5 | 35.0 ± 17.2 | −5.7 ± 5.6 | 4.1 ± 4.4 | 2.0 ± 2.7 | 30.5 ± 18.9 | 8.3 ± 3.6 | −0.3 ± 1.7 |
| SCKRTKAQILLAPCT [C1] | 0.1 ± 1.6 | 0.3 ± 0.7 | 1.2 ± 2.7 | 70.5 ± 35.3 | 5.2 ± 3.1 | 88.0 ± 29.9 | 1.4 ± 1.7 | 4.0 ± 3.4 | 19.8 ± 12.3 | 2.3 ± 3.0 | 3.0 ± 4.0 | 2.8 ± 1.6 | −0.3 ± 2.5 |
| SIGKALFILGYPDYD [3.14] | 18.6 ± 4.6 | 24.7 ± 15.2 | 66.0 ± 7.7 | 26.8 ± 12.5 | 2.1 ± 2.4 | 0.8 ± 0.9 | 14.4 ± 13.4 | 2.5 ± 3.7 | 22.4 ± 4.2 | 66.5 ± 7.5 | 93.4 ± 21.5 | 50.2 ± 5.0 | 7.1 ± 3.7 |
